Results: patent US20150313988
Substitutions are numbered along the chain they refer to. Names and notes keep the numbering of the source.

T1: RLRGG-AMC, C-terminal peptide motif of Ub and ISG15 coupled to aminomethylcoumarin
T1 chain: RLRGG

B1: EAV PLP2 domain (residues 261-392 of EAV pp1a) carrying a C-terminal HIS6 purification tag, wild-type (protein)
chain: GYNPPGDGACGYRCLAFMNGATVVSAGCSSDLWCDDELAYRVFQLSPTFTVTIPGGRVCPNAKYAMICDKQHWRVKRAKGVGLCLDESCFRGICNCQRMSGPPPAPVSAAVLDHILEAATFGNVRVVTPEGQ
B2: EAV PLP2 domain I353R mutant enzyme (protein)
chain: B1 chain with I93R
B3: EAV nsp2-3 polyprotein with N-terminal HA tag, PLP2 mutant I353R (protein)
chain: GYNPPGDGACGYRCLAFMNGATVVSAGCSSDLWCDDELAYRVFQLSPTFTVTIPGGRVCPNAKYAMICDKQHWRVKRAKGVGLCLDESCFRGRCNCQRMSGPPPAPVSAAVLDHILEAATFGNVRVVTPEGQPRPVPAPRVRPSANSSGDVKDPAPVPPVPKPRTKLATPNPTQAPIPAPRTRLQGASTQEPLASAGVASDSAPKWRVAKTVYSSAERFRTELVQRARSVGDVLVQALPLKTPAVQRYTMTLKMMRSRFSWHCDVWYPLAVIACLLPIWPSLALLLSFAIGLIPSVGNNVVLTALLVSSANYVASMDHQCEGAACLALLEEEHYYRAVRWRPITGALSLVLNLLGQVGYVARSTFDAAYVPCTVFDLCSFAILYLCRNRCWRCFGRCVRVGPATHVLGSTGQRVSKLALIDLCDHFSKPTIDVVGMATGWSGCYTGTAAMERQCASTVDPHSFDQKKAGATVYLTPPVNSGSALQCLNVMWKRPIGSTVLGEQTGAVVTAVKSISFSPPCCVSTTLPTRPGVTVVDHALYNRLTASGVDPALLRVGQGDFLKLNPGFRLIGGWIYGICYFVLVVVSTFTCLPIKCGIGTRDPFCRRVFSVPVTKTQEHCHAGMCASAEGISLDSLGLTQLQSYWIAAVTSGLVILLVCHRLAISALDLLTLASPLVLLVFPWASVGLLLACSLAGAAVKIQLLATLFVNLFFPQATLVTMGYWACVAALAVYSLMGLRVKVNVPMCVTPAHFLLLARSAGQSREQMLRVSAAAPTNSLLGVARDCYVTGTTRLYIPKEGGMVFE
B4: EAV nsp2-3 polyprotein with N-terminal HA tag, PLP2 mutant T312A (protein)
chain: B3 chain with T52A, R93I

Experiments:
[1] = target: T1, RLRGG-AMC, C-terminal peptide motif of …
[2] = target: ubiquitin-aminomethylcoumarin, P0CG47
Chain of ubiquitin-aminomethylcoumarin, P0CG47 (P0CG47 whole entry, looked up): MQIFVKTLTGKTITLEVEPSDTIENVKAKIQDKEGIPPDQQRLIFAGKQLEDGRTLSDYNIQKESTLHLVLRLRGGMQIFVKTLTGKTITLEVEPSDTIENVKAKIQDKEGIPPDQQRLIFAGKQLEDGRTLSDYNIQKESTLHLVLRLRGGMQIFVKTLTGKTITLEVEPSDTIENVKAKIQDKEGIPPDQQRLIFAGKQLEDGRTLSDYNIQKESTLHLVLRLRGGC

[3] = target: FLAG-tagged ubiquitin, P0CG47
Chain of FLAG-tagged ubiquitin, P0CG47 (P0CG47 whole entry, looked up): as above

Protein | kcat/KM [1] | kcat/KM [2] | kcat/KM relative to wild type [2] | density of the alpha-flag lane (remaining ubiquitin conjugates) [3]
B1 | 48 ± 8 M⁻¹ s⁻¹ | 21000 ± 2000 M⁻¹ s⁻¹ |  | 
B2 | 71 ± 8 M⁻¹ s⁻¹ | 1100 ± 100 M⁻¹ s⁻¹ | the kcat/KM value for Ub-AMC of the mutant I353R is 20 times lower than that of the wild-type virus | 
B3 |  |  |  | shows a density of the alpha-flag lane that is about twice as high as that of the T312A lane
B4 |  |  |  | a mutant such as T312A already shows a level of DUB-activity that leads to a significantly denser alpha-flag lane, which represents the amount of remaining ubiquitin conjugates, than that of the wild-type virus
